Assay: label from the status in PepcDB records
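Further: failed if final PepcDB status was selected cloned or expressed and not failed if soluble or beyond.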

Row | Sequence | protein production
1 | MSKTVVLPQSDSPSVVASVSFWQAFRFWLKLGFISFGGPAGQIAMMHQELVDNRRWISEGRFLHALNFCMVLPGPEAQQLATYIGWLMHKTWGGVIAGVLFILPSLVLLIALAWIYLVWGDVAVVAGIFYGIKPAVAAIVLQAAHRIGSRALKNGAYWAIAAAAFVAIFALNVPFPLIVLAAALVGFIGGRLAPTIFGRADAHHAQSHPGGAAIIDDTTPIPAHAIFSWRRTSQVLIAGMLLWLVPMAALTLMLGWAHPLTQMSWFFTKAALMTFGGAYAVLPYVYQGAVTHYGWLTAGQMMDGLALGESTPGPLIMVVTFVGFVGGYTKAVLGVDDVLLGGIAAACLVTWFTFLPSFIFILAGGPFIETTHNKVGFTAPLTAITAAVVGVILNLALFFIWHSVWGPSGFDPWSAAIALGAAGLLFRYKWKLTWVLATAAAVGLIVHMAGLSGAG | failed
2 | MSMNSEPTPAEAFFLEGNRLLAASECRAAEACFREALALAPDFAEAHANLGMLLDQEGMAAEAERQYRLALALNPRLGHTHSNLGVLLANQKRFEEAESAYLSAIELEPDSPAAWSNLGVLQACRKQEREAEESYRTALRLDPDYHRASFNLSYLLLRQGRFDEGWSLLESRNRRWFARLEEHLPCPRWRGEDLQGRSLLIGLEAGHGDMIQFCRYAPLLKDRGAARITLVCHVALKDLLKTLDGVDTVISFDEILPDDAWDFWTPAMSIPCYCRTRLDSIPARIPYLHADPGLAEQWAAMLEREWAGPEMRIGLAWKGNPHFENDGDRSLPHLKTLEPLGAVAGVRFFSLQKGAGEEEAAQPPAGLPVVNLMRHIAGFADTAALVANLDLVITVDTAVAHLAGALGTECWVLLPEYRTDWRWLTGRTDSPWYPGVMRLFRQPRVGDWETVVAEVGEALRLFAARPRSPRGTR | failed
3 | MALILRPPHGYSVRNRYWPGSGASNLPYLFEDFALDGDRRELRRGNSLIAVEPQVFDLLQYLIRNRERVVSKDDLVDAVWQGRIVSDATLASRVNAARSALQDNGEQQRLVRTFPRRGFRFVGTVHEEAGAEATAPVEPAKPGLGIPARPSIAVLPFVNLSGDPDQDYFADGMVEDIITGLSRIRWLFVIARNSSFTYKGRAVDMKQVGQELGVRYVLEGSVRKVGSRVRITGQLIDTEDGGHLWAERYDRELTDVFALQDEITISVVAAIEPNLRRAEIERVKRQRPDSLDAYDLFLRALPDVYTFMPQGAARGLPLLDQALAIEPSYALVHGFAAWAHQTLFIRGGMQAEHSGKASRHAHAAIEHGSGDAMALALAGFTIGLVEHDRKLADEAFSQALSLSASCAFVYAFGCVPVAYGGDATRAIDWGEQALRLNPLDAMNCVPQGMIGFGNFLAGRHEQAIAAGRRAVEMNPGFSILHGWLAAPLARLGRIEEAKAAGSRLMALDPHFTIGRWSAAVGLAPAIIDDVTEAMRLAGLPA | failed
4 | MMKPSVSAAILAAGTSTRMNEMKQLAKIQGTYMLKYVIDQVSNHPFQHIFVIVGHQADIVMKMIQVEDKRVQWLVNDQYKQGQSTSFKLAMEQARQYGDAVMMFLADQPLIEKETVNIVLNEGITRVQEEPFIVRPMYEKKEGHPVYWGNIHALDCSAVNGDKGGKTLMEELERMLIPVHDQGVLVDVDTCEDYKKVNDLMKRKSPSTHLEHHHHHH | not failed
5 | MEEELQHSHCVNCVSRRCMTRPEPGISCDLIGCPLVCGAVFHSCKADEHRLLCPFERVPCLNSDFGCPFTMARNKVAEHLEMCPASV | not failed
6 | QKVEFRKRMEKEVSDFIQDSGQIKKKFQPMNKIERSILHDVVEVAGLTSFSFGEDDDCRYVMIFKKEFAPSDEELDSYRRG | not failed
7 | EKGDWAQFGRYAEANKTVKVPSNVVFMGNSITDGWWPADSTFFIRNNFVDRGISGQTTSEMLVRFRQDVINLKPKAVVILAGINDIAHNNGVIALENVFGNLVSMAELAKANHIKVIFCSVLPAYDFPWRPGMQPADKVIQLNKWIKEYADKNGLTYVDYHSAMKDERNGLPANLSKDGVHPTLEGYKIMEKIVLEAIHKTVK | not failed
8 | MLRTEHYAFLPCISRALEERDSLGIRRELRARQQRLSMQQSRSKLGRVCVTGANSPLGQELVGALTRTPDPSLRPDAIGVIGARDPIESHSAGAGLHFPGPGVDFLECAATDLEHYNPRTLFSINDDDLGLRRRSIFRENQVVIDLLRAQGETNEPRSKTRLVLVTLLGCGDSEDAIPSQAFDVLRPLLLELSRVEQYVRESGLPYTIVRPGALEHGDADSRAIVSESKVGFGTIHRSTLAHLLLNVAASEKAVNKTLMALDMNRLLVAAPYVRPFEVWESPPFEVFDL | not failed
9 | MGGGGGSRGPGHAARIAAPPFRPPSPCPAMLAAGEMCGAAHCPARPAPVSCRDRPRRFSSPSPLPGSLFFSPVAAGRRVSRPIFLFCSFGGFCMQRFLTLALLGAAALGGALAQNAAPAPAPAPVAQPAPAPQTAPATPAAQPAAPAVRPPAANYVVVGNLYYDQGKFDQAYVAFRTAAELDPRNTQALLGLGRSQVRLRLYAPAVDTLRRLTTVDPQNVSGYVALSQAYQQQYMGSGDRASVTGNLDAALAVLQQAEAAVTALPEADRALAQSKLLNERGSVYRLQGKPTQAIEAFRQASALNPENSLLLFNLGDMYAASGQLPLAVSALQQAVILDPRDPYNRAYYAKLLALSGNLTSARVEAAQASRLVTGNAYATGQYGVVSYLAGDRTTARTQLAQAVRLDPLRYPEFYYYLGRLDLDGSDLKSARDNLTRAVALNSTSAEYAYYLGLAYERGVPGVAADNVRARENYDKALKLAPGYKQAQEGADRLKPPSSGN | failed
10 | MPQVETTSVFRADLLKEMESSTGTAPASTGAENLPAGSALLVVKRGPNAGARFLLDQPTTTAGRHPESDIFLDDVTVSRRHAEFRINEGEFEVVDVGSLNGTYVNREPRNAQVMQTGDEIQIGKFRLVFLAGPAELEHHHHHH | not failed
11 | MIQKQHESKLEVGQTFPVTIKRLGINGEGVGYFKRQVVFIPGALPGEEVVAETTKIQRGFAEAKVKKVRKASPHRVKAPCPVYEECGGCQLQHLDYKEQLNQKRDIVVQAFEKYMKNSMEEKIRPTLGMENPWHYRNKSQLQVGRKDEKVITGLYKQNSHQLIDIAHCMIQHKATNEATKVVRRILEKLNVSIYNEKKQKGLVRTIVTRTAVQTGEVQVTLITTKEELPNKEQFIAEVQKQMPAVKSIMQNVNWRKTSVIFGDKTFKLAGKEVIQETLGDLSFELSARAFFQLNPEQTVVLYNEAKKAAALTGNEKIVDAYCGVGTIGLWLANDAAEVRGMDVIPEAIADARKNAKRHGFTNTKYEAGKAEQWLPKWVKEGWRPDVIVVDPPRTGCDDKLLETILKVKPKQVVYVSCNPSSLARDVQALMKSYEVEYVQPVDMFPHTAHVENVVKLTLK | failed
12 | MTKPMIQIALDQTNLTDAVAVASNVASYVDVIEVGTILAFAEGMKAVSTLRHNHPNHILVCDMKTTDGGAILSRMAFEAGADWITVSAAAHIATIAACKKVADELNGEIQIEIYGNWTMQDAKAWVDLGITQAIYHRSRDAELAGIGWTTDDLDKMRQLSALGIELSITGGIVPEDIYLFEGIKTKTFIAGRALAGAEGQQTAAALREQIDRFWP | not failed
13 | ARLEPLLIGGLYPKNLEDRILIKLDQAPPYLLDGLVAVEDRDFYHHFGVSPKSIARAIWVNTSQGQMRQGGSTLTQQLVKNFYLTNERSLSRKLTEAMMAVLLEIHYSKQEILEAYLNEVFVGQDGQRAVHGFGLASQYFFSQPLSELKIHQVAMLVGLVKGPSFYNPRRNP | failed
14 | MRRASQMFDFIGFKEGAMAFLLAFALAGLFTIAFKYVYQWVTPYNEKALIREGNTAAAIALAGALIGYVLPLASALSHTVSLPEFAAWATLAGVIQIAAFTGVRLVALPDVKARIENGEVSVGVYLAGISIAVGLLNAACMTT | failed
15 | MRERTEARRRRIEEVLRRRQPDLTVLLENVHKPHNLSAILRTCDAVGVLEAHAVNPTGGVPTFNETSGGSHKWVYLRVHPDLHEAFRFLKERGFTVYATALREDARDFREVDYTKPTAVLFGAEKWGVSEEALALADGAIKIPMLGMVQSLNVSVAAAVILFEAQRQRLKAGLYDRPRLDPELYQKVLADWLRK | not failed
16 | MGSCCSCLNRDSVPDNHPTKFKVTNVDDEGVELGSGVMELTQSELVLHLHRREAVRWPYLCLRRYGYDSNLFSFESGRRCQTGQGIFAFKCSRAEEIFNLLQDLMQCNSINVMEEPVIITRNSHPAELDLPRAPQPPNALGYTVSSFSNGCPGEGPRFSAPRRLSTSSLRHPSLGEESTHALIAPDEQSHTYVNTPASEDDHRRGRHCLQPLPEGQAPFLPQARGPDQRDPQVFLQPGQVKFVLGPTPARRHMVKCQGLCPSLHDPPHHNNNNEAPSECPAQPKCTYENVTGGLWRGAGWRLSPEEPGWNGLAHRRAALLHYENLPPLPPVWESQAQQLGGEAGDDGDSRDGLTPSSNGFPDGEEDETPLQKPTSTRAAIRSHGSFPVPLTRRRGSPRVFNFDFRRPGPEPPRQLNYIQVELKGWGGDRPKGPQNPSSPQAPMPTTHPARSSDSYAVIDLKKTVAMSNLQRALPRDDGTARKTRHNSTDLPL | not failed
17 | MIYGILSKNLGMPTPTFLVCPDVVKFENVGQIAVVNGMVYLGGSVGIDKSGTLHKGLEEQTRQTFDNIRKCLEYANSGLDYIVSLNIFLSTSLSDSEEARFNELYREVFCVPATRPCRCCVRAQLQEGLLVEVVNVVAAQK | not failed
18 | MSADHDEGLRRAQRLHLSGDADGAERAYRALLDDAALGAPAAHWLGFLLMQQGRLDEALAWLERVVAADDGHAEWHFNLGLVRARLGRSEEAVFALREAARRDPSRYFYWTNLGAQLMRGGQDAEAEQALRRAASLDPHCPDAFYLLTEMLLRQGRHAEARRCNAQGVLAEPPGKMAPIAVGQALCELGRSEEARSLAQSWLLAQPGHPVARHMLAAFGGGDAPADGDDEYVGCAFDAAAASFDQDLSRLRYQGPSWTAACLAGLSLAPKSLSALDLGCGTGLIGEVLQPWASRLDGVDLSAGMLARAGAKGIYDSLEQAELRAFLRQTDRTYQLIACMDTLPYLGELDALFMLLAERMAPGGLLLFCTESLEDGEAGDGRLHHSGRYRHHSRYLDRLLAVGWDVLERARMPVRDEAGCPVWGDFVCARKVFAA | failed
19 | MIYLAITTLIWAFSFGLIGNALKGLDPLQIADTRLLLALIAFIPFMKFGNTNGKEKRQLILLGALQYGVMYTCYLSAFRYLPSHLVALFSVLTPLYIVIINDLRQRSFTPWYLVATVLSVFGAAIIKMGNIDSNEIWLGFGLMQVANLAFAFGQVYYRDWKRSRAHITDSSIFGFLYLGAAIFTTIATLLISHQPPIPLNATPTQWFVLVYMGIIASGLCFFLWNKGGTQTSVGVLATFNNAVVPLAMFASLFIFGEAKGGTPEELVRLTIGSLLIVSALLIAKRK | failed
20 | IQAGILANSFHVKLSDETQMVVKYQNQPFVNGTFGNWQILEAETINGINQILWRNPDIEEVGIWNTDANWNWISSETWSANSLKTLNAEVTFQIDINNDQLIG | failed
21 | MVADSFVYSFVSSPDLSVLVLLCVLLLTALRQVGSLRLQIWQVMTLGAFSVLLLGEISPQEALRAINIDVLLFLFGAFCVGEALNRSGYLAWIGGRIVSRAKNTDQLVLLVIFSTGLLSAVLMNDTLAIMGTPLVLRFSRKYGVSPKLMLFALAFGITTGSVMSPIGNPQNLLIAIDGNLDSPFVVFLSSLAVPTMINLVLVYAVLKLFFSREFGKPALIHTEELISDPELAEISKKALFLLLALITCKILLVEFLPAWDFSLSWIALFSASPILLSKRRTEVVKNIDWATLVFFVSMFVLMESVWISGTCQGLLYRMSPQLGSVPTILALSIGLSQLISNVPFVALYLPAMGSGVSQGQLMALAAGSTIAGNLLILGAASNVIILQNAEKEGETFSFMEFAKIGLLISFLNAIIYFIFL | failed
22 | YTVEPVQDGERSVTLRRAGGTPLVAAMYHLPAAGSPDFVGLDLAATILADTPSGRLYHALVPTKLASGVFGFTMDQLDPGLAMFGAQLQPGMDQDKALQTLTATLESLSSKPFSQEELERARSKWLTAWQQTYADPEKVGVALSEAIASGDWRLFFLQRDRVRDAKLDDVQRAAVAYLVRSNRTEGRYIPTEKPQRAPLAQRADLAAV | not failed
